Data taken from doi:10.1101/2024.11.03.621741 (bioRxiv, 2024).
Substitutions are numbered along the chain they refer to. Names may count otherwise.

B1: GST-FIGNL1-dNLS (domain or fragment)
chain: AGKKFKDSLLEPALASVVIHKEATVFDLPKFSVCGSSQESDSLPNSAHDRDRTQDFPESNRLKLLQNAQPPMVTNTARTCPTFSAPVGESATAKFHVTPLFGNVKKENHSSAKENIGLNVFLSNQSCFPAACENPQRKSFYGSGTIDALSNPILNKACSKTEDNGPKEDSSLPTFKTAKEQLWVDQQKKYHQPQRASGSSYGGVKKSLGASRSRGILGKFVPPIPKQDGGEQNGGMQCKPYGAGPTEPAHPVDERLKNLEPKMIELIMNEIMDHGPPVNWEDIAGVEFAKATIKEIVVWPMLRPDIFTGLRGPPKGILLFGPPGTGKTLIGKCIASQSGATFFSISASSLTSKWVGEGEKMVRALFAVARCQQPAVIFIDEIDSLLSQRGDGEHESSRRIKTEFLVQLDGATTSSEDRILVVGATNRPQEIDEAARRRLVKRLYIPLPEASARKQIVINLMSKEQCCLSEEEIEQIVQQSDAFSGADMTQLCREASLGPIRSLQTADIATITPDQVRPIAYIDFENAFRTVRPSVSPKDLELYENWNKTFGCGK
B2: RAD51 (wild type, recombinant) (natural protein)
chain: MAMQMQLEANADTSVEEESFGPQPISRLEQCGINANDVKKLEEAGFHTVEAVAYAPKKELINIKGISEAKADKILAEAAKLVPMGFTTATEFHQRRSEIIQITTGSKELDKLLQGGIETGSITEMFGEFRTGKTQICHTLAVTCQLPIDRGGGEGKAMYIDTEGTFRPERLLAVAERYGLSGSDVLDNVAYARAFNTDHQTQLLYQASAMMVESRYALLIVDSATALYRTDYSGRGELSARQMHLARFLRMLLRLADEFGVAVVITNQVVAQVDGAAMFAADPKKPIGGNIIAHASTTRLYLRKGRGETRICKIYDSPCLPEAEAMFAINADGVGDAKD
B3: RAD51-K133R (natural protein)
chain: B2 chain with K133R

Assays:
[1] = molecular target: MMS22L-TONSL complex (recombinant, purified) (human, UniProt Q6ZRQ5;Q96HA7); experiment: pull-down
Sequence of MMS22L-TONSL complex (recombinant, purified) (Q6ZRQ5 whole entry, chain 1 of 2): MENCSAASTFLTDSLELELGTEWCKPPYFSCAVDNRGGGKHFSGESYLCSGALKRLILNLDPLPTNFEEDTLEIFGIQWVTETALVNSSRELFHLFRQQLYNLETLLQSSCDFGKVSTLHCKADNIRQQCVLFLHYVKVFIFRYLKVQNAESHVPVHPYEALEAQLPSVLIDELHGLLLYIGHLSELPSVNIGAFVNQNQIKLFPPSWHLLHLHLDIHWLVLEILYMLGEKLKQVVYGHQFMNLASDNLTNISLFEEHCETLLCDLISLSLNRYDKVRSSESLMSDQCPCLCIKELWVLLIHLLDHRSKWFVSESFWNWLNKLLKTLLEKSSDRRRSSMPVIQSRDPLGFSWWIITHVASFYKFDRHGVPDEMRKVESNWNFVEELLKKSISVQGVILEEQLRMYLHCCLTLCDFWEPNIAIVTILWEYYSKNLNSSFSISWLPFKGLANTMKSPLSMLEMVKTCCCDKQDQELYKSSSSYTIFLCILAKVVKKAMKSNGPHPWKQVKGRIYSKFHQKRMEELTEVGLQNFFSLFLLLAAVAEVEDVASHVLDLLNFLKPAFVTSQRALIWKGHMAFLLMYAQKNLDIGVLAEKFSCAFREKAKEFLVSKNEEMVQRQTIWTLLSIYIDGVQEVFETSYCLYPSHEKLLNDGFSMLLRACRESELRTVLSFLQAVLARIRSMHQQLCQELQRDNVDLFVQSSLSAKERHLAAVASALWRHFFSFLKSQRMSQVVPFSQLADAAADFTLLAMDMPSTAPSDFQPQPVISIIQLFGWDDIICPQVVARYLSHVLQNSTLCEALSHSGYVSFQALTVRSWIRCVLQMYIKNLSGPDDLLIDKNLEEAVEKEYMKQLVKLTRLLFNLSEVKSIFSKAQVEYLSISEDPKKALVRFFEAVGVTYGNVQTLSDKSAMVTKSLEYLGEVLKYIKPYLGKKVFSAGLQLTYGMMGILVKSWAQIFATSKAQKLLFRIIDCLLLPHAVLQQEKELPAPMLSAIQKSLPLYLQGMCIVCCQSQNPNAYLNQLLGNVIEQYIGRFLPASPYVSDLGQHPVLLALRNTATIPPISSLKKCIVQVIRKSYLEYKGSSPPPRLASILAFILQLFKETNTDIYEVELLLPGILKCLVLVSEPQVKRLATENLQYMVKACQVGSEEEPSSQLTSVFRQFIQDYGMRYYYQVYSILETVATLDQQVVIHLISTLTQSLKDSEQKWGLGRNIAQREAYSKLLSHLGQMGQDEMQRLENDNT
Sequence of MMS22L-TONSL complex (recombinant, purified) (Q96HA7 whole entry, chain 2 of 2): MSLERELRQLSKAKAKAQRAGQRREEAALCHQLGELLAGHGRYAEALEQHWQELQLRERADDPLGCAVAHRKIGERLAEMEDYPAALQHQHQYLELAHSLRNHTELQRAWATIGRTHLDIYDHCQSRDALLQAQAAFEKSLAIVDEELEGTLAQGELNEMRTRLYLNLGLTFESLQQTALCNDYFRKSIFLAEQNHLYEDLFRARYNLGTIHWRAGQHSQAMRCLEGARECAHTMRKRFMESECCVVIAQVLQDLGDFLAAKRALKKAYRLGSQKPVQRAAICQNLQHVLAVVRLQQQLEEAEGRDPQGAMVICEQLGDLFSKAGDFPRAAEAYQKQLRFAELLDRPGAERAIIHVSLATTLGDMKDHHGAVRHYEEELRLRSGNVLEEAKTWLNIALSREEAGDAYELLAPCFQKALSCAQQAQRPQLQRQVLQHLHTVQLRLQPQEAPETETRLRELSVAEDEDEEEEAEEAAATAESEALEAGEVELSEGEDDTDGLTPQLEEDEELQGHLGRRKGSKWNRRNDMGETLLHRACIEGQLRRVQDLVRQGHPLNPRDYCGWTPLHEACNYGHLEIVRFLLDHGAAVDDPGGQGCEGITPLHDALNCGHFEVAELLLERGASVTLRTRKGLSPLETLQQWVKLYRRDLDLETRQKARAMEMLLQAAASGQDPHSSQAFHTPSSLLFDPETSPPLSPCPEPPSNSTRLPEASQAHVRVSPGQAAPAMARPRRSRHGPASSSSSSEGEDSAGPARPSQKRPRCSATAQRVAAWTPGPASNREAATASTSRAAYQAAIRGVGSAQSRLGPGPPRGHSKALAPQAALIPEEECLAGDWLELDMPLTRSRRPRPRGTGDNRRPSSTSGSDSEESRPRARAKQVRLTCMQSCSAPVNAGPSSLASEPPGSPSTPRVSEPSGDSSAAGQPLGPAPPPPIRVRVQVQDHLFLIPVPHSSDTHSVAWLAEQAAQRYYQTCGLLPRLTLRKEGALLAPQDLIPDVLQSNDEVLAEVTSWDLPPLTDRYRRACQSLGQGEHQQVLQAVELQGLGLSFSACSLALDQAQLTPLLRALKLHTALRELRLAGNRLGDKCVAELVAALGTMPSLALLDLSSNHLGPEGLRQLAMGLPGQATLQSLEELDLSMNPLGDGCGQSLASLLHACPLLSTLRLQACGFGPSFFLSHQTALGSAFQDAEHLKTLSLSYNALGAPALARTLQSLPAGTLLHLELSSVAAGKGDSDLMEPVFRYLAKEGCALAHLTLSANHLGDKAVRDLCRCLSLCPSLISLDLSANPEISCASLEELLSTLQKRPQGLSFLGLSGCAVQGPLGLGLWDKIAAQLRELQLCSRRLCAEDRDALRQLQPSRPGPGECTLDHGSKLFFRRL

GST-FIGNL1-dNLS = molecular target: B1; experiment: pull-down

Binder	binding result [1]	binding result (GST-FIGNL1-dNLS)
B1	binds	–
B2	–	binds
B3	–	binds
